# Where a chain is given by its changes, count along the chain named.
# T1: Human PTK7 Protein, His Tag, Acro Biosystems (human, UniProt Q13308 31-704)
# T1 construct: Bought recombinant protein; also called CCK4; not shown: His tag
# T1 sequence: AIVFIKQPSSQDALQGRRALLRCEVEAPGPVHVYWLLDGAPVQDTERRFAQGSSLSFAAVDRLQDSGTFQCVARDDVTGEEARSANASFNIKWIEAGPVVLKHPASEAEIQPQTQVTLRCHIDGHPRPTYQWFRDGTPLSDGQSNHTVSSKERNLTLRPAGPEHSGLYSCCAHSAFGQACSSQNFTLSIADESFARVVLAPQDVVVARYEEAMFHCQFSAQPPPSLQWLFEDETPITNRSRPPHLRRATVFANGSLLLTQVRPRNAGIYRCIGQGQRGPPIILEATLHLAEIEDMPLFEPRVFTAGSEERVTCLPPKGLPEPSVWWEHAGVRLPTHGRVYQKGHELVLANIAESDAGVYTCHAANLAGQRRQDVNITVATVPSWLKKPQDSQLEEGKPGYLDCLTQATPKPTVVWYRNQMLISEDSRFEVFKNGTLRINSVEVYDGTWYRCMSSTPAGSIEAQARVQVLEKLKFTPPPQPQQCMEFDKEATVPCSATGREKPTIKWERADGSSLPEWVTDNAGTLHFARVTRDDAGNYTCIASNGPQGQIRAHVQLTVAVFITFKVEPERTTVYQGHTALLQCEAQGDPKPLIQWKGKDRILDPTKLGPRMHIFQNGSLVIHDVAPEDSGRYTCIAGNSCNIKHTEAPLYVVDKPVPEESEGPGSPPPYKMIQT
# T2: Human PTK7 Protein, His Tag (Acro Biosystems) (human, UniProt Q13308 31-704)
# T2 construct: Bought His-tagged recombinant human PTK7; also called CCK4; Tyrosine-protein kinase-like 7
# T2 sequence: T1 sequence
# B1: MYT11117 (antibody, V domains shown)
# VH: EVQLVESGGGLVQPGGSLRLSCTASGFSLSTYAMSWVRQAPGKGLEWVGMIYINHNTYYASWAKGRFTISRDTSKNTVYLQMNSLRAEDTAVYFCARDIGISYYIGVSLWGQGTLVTVSS
# VL: EIVMTQSPSTLSASVGDRVIITCQASQSIGTRLSWYQQKPGKAPKLLIYGASKLATGVPSRFSGSGSGAEFTLTISSLQPDDFATYYCLGEYSYTTTDGIAFGQGTKLTVL
# notes: MYT9412 HC variant
# B2: MYT11107 (antibody, V domains shown)
# VH: B1 VH with T31H, H55D
# VL: B1 VL
# notes: MYT9412 HC variant
# B3: MYT11106 (antibody, V domains shown)
# VH: B1 VH with S30H, H55D
# VL: B1 VL
# notes: MYT9412 HC variant
# B4: MYT11108 (antibody, V domains shown)
# VH: B1 VH with Y32H, H55D
# VL: B1 VL
# notes: MYT9412 HC variant
# B5: MYT11115 (antibody, V domains shown)
# VH: B1 VH with I53H, H55D
# VL: B1 VL
# notes: MYT9412 HC variant
# B6: MYT11105 (antibody, V domains shown)
# VH: B1 VH with L29H, H55D
# VL: B1 VL
# notes: MYT9412 HC variant
# B7: MYT11103 (antibody, V domains shown)
# VH: B1 VH with F27H, H55D
# VL: B1 VL
# notes: MYT9412 HC variant
# B8: MYT10988 (antibody, V domains shown)
# VH: EVQLVESGGGLVQPGGSLRLSCTASGFSLSSYAMGWVRQAPGKGLEWVGFINAGGNTYYANWAKGRFTISRDTSKNTVYLQMNSLRAEDTAVYFCARRYSRASGWYHLWGQGTLVTVSS
# VL: EIVMTQSPSTLSASVGDRVIITCQASQSISSYLAWYQQKPGKAPKLLIYAASTLASGVPSRFSGSGSGAEFTLTISSLQPDDFATYYCQSYSYSSGIDYGDVFGQGTKLTVL
# notes: MYT9359 HC variant; captured on anti-human Fc sensor
# B9: MYT11020 (antibody, V domains shown)
# VH: B8 VH with H107D
# VL: B8 VL with Y99H
# notes: MYT9359 LC variant; captured on anti-human Fc sensor
# B10: MYT10968 (antibody, V domains shown)
# VH: B8 VH with T57H, H107D
# VL: B8 VL
# notes: as for B8
# B11: MYT10992 (antibody, V domains shown)
# VH: B8 VH with H107D
# VL: B8 VL with Q24H
# notes: as for B9
# B12: MYT10994 (antibody, V domains shown)
# VH: B8 VH with H107D
# VL: B8 VL with S26H
# notes: as for B9
# B13: MYT10995 (antibody, V domains shown)
# VH: B8 VH with H107D
# VL: B8 VL with Q27H
# notes: as for B9
# B14: MYT10953 (antibody, V domains shown)
# VH: B8 VH with S28H, H107D
# VL: B8 VL
# notes: as for B8
# B15: MYT11016 (antibody, V domains shown)
# VH: B8 VH with H107D
# VL: B8 VL with S95H
# notes: as for B9
# B16: MYT10971 (antibody, V domains shown)
# VH: B8 VH with A60H, H107D
# VL: B8 VL
# notes: as for B8
# B17: MYT10965 (antibody, V domains shown)
# VH: B8 VH with G54H, H107D
# VL: B8 VL
# notes: as for B8
# B18: MYT10977 (antibody, V domains shown)
# VH: B8 VH with A96H, H107D
# VL: B8 VL
# notes: as for B8
# B19: MYT11008 (antibody, V domains shown)
# VH: B8 VH with H107D
# VL: B8 VL with A55H
# notes: as for B9
# B20: MYT10967 (antibody, V domains shown)
# VH: B8 VH with N56H, H107D
# VL: B8 VL
# notes: as for B8
# B21: MYT10987 (antibody, V domains shown)
# VH: B8 VH with Y106H, H107D
# VL: B8 VL
# notes: as for B8
# B22: MYT10976 (antibody, V domains shown)
# VH: B8 VH with G65H, H107D
# VL: B8 VL
# notes: as for B8
# B23: MYT10996 (antibody, V domains shown)
# VH: B8 VH with H107D
# VL: B8 VL with S28H
# notes: as for B9
# B24: MYT11007 (antibody, V domains shown)
# VH: B8 VH with H107D
# VL: B8 VL with L54H
# notes: as for B9
# B25: MYT11009 (antibody, V domains shown)
# VH: B8 VH with H107D
# VL: B8 VL with S56H
# notes: as for B9
# B26: MYT10956 (antibody, V domains shown)
# VH: B8 VH with S31H, H107D
# VL: B8 VL
# notes: as for B8
# B27: MYT11015 (antibody, V domains shown)
# VH: B8 VH with H107D
# VL: B8 VL with S94H
# notes: as for B9
# B28: MYT10954 (antibody, V domains shown)
# VH: B8 VH with L29H, H107D
# VL: B8 VL
# notes: as for B8
# B29: MYT10975 (antibody, V domains shown)
# VH: B8 VH with K64H, H107D
# VL: B8 VL
# notes: as for B8
# B30: MYT11019 (antibody, V domains shown)
# VH: B8 VH with H107D
# VL: B8 VL with D98H
# notes: as for B9
# B31: MYT10973 (antibody, V domains shown)
# VH: B8 VH with W62H, H107D
# VL: B8 VL
# notes: as for B8
# B32: MYT10972 (antibody, V domains shown)
# VH: B8 VH with N61H, H107D
# VL: B8 VL
# notes: as for B8
# Target: T1, Human PTK7 Protein, His Tag, Acro …
# Assay: BLI, anti-human Fc capture, 50 nM PTK7; 1 = pH dependent binding relative to parent
row,binding result,Binder
1,binds,B1
2,binds,B2
3,binds,B3
4,binds,B4
5,binds,B5
6,binds,B6
7,binds,B7

# Target: T2, Human PTK7 Protein, His Tag (Acro …)
# Assay: BLI (Octet), antibody on anti-human Fc sensor, 50 nM PTK7; 2 = substantially similar binding
row,binding result,Binder
1,binds,B8
2,binds,B9
3,binds,B10
4,binds,B11
5,binds,B12
6,binds,B13
7,binds,B14
8,binds,B15
9,binds,B16
10,binds,B17
11,binds,B18
12,binds,B19
13,binds,B20
14,binds,B21
15,binds,B22
16,binds,B23
17,binds,B24
18,binds,B25
19,binds,B26
20,binds,B27
21,binds,B28
22,binds,B29
23,binds,B30
24,binds,B31
25,binds,B32

# Reference: patent US20260209386A1 (MYTHIC THERAPEUTICS, published 2026)
